Measurements reported in PMC9388692, “Nuclear import of PTPN18 inhibits breast cancer metastasis mediated by MVP and importin β2” (Cell Death & Disease, 2022).

Columns and labels:
His-tagged importin β2 = molecular target: T1, His-tagged importin β2 (UniProt Q92973 1-898); assay: pull-down; GST pull-down of GST-tagged PTPN18 and its NLS mutants with His-tagged importin β2; purified proteins, in vitro; settings: both partners purified
T1 construct: source: purified proteins
T1 sequence (looked up): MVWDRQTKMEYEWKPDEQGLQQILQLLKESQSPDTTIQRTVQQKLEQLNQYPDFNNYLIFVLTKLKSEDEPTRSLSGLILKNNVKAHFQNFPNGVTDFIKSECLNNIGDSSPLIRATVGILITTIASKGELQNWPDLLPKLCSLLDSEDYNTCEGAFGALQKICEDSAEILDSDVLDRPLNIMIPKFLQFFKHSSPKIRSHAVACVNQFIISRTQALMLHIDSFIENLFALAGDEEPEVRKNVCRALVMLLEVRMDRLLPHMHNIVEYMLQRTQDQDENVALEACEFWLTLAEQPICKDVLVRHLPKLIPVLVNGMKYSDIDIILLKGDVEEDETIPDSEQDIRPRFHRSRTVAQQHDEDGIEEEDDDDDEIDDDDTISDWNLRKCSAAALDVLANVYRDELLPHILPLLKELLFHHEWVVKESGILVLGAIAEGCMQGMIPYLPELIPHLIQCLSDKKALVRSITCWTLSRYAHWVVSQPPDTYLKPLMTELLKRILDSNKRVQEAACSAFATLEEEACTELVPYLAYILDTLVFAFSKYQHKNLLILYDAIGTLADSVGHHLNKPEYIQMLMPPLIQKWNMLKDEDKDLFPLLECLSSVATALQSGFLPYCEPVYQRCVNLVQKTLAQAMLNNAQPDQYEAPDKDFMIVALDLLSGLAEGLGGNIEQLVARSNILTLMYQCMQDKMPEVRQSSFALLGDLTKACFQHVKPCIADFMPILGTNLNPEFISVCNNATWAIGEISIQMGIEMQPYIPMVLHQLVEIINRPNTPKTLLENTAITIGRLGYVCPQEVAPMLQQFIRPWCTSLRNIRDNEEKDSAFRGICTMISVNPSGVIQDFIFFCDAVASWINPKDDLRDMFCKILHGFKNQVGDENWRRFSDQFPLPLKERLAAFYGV

His-tagged MVP = molecular target: T2, His-tagged MVP (UniProt Q14764 1-893); assay: pull-down; GST pull-down with GST-tagged PTPN18 and His-tagged MVP; called a direct interaction, in vitro; settings: both partners purified
T2 construct: MVP, His-tagged, for GST pull-down
T2 sequence (Q14764 whole entry): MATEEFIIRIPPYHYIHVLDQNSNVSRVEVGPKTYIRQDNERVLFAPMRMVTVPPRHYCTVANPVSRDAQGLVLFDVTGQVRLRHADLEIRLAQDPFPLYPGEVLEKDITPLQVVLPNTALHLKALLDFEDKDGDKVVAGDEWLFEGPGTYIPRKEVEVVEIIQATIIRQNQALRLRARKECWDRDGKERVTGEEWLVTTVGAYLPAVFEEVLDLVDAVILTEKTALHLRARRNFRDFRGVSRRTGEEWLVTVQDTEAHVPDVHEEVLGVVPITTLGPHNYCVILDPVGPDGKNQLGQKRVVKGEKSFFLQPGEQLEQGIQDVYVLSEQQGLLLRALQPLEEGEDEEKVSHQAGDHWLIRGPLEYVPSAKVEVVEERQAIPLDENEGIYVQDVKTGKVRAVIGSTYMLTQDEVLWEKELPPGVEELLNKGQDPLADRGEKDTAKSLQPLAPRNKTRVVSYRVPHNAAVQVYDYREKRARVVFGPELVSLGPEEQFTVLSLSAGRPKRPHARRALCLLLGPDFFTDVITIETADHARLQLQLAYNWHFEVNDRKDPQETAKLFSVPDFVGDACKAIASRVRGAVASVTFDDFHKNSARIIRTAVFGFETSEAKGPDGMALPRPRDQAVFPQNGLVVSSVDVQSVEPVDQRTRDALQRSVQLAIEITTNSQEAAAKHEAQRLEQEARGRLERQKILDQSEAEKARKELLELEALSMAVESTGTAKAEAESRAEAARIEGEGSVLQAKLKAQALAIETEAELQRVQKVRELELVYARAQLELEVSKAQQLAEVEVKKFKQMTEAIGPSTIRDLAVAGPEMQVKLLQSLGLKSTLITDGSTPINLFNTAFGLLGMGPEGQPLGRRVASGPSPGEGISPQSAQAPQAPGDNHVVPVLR

B1: GST-tagged PTPN18 (natural protein, UniProt Q99952 1-460, looked up)
chain: MSRSLDSARSFLERLEARGGREGAVLAGEFSDIQACSAAWKADGVCSTVAGSRPENVRKNRYKDVLPYDQTRVILSLLQEEGHSDYINGNFIRGVDGSLAYIATQGPLPHTLLDFWRLVWEFGVKVILMACREIENGRKRCERYWAQEQEPLQTGLFCITLIKEKWLNEDIMLRTLKVTFQKESRSVYQLQYMSWPDRGVPSSPDHMLAMVEEARRLQGSGPEPLCVHCSAGCGRTGVLCTVDYVRQLLLTQMIPPDFSLFDVVLKMRKQRPAAVQTEEQYRFLYHTVAQMFCSTLQNASPHYQNIKENCAPLYDDALFLRTPQALLAIPRPPGGVLRSISVPGSPGHAMADTYAVVQKRGAPAGAGSGTQTGTGTGTGARSAEEAPLYSKVTPRAQRPGAHAEDARGTLPGRVPADQSPAGSGAYEDVAGGAQTGGLGFNLRIGRPKGPRDPPAEWTRV
notes: PTPN18 wild type, GST-tagged, for GST pull-down; also called PTPN18 WT; source: purified proteins
B1: binds (His-tagged importin β2); binds (His-tagged MVP).
